PMC3099347 (Journal of molecular biology, 2011)

Target: the molecule itself
Assay: SEC

Row | Protein | stoichiometry N
1 | Methanococcus jannaschii FKBP26 fragment 231-ΔIF (1-231Δ83-G-A-G-134) (domain or fragment) MVEKGKMVKISYDGYVDGKLFDTTNEELAKKEGIYNPAMIYGPVAIFAGEGQVLPGLDEAILEMDVGEEREVVLPPEKAFGKRGAGLAGKEVKYRIKIEEVVDDKKNIVKEIVKMYVPRLSDVKVTIRNGTVKIELPEFAPFIPNIQTAKMAIANEILKRLEDAEKVSFVETFERKKETKEENK | 2
2 | Methanococcus jannaschii FKBP26, construct 231 (full-length, residues 1-231) (natural protein, UniProt Q58235 1-231, looked up) MVEKGKMVKISYDGYVDGKLFDTTNEELAKKEGIYNPAMIYGPVAIFAGEGQVLPGLDEAILEMDVGEEREVVLPPEKAFGKRDPSKIKLIPLSEFTKRGIKPIKGLTITIDGIPGKIVSINSGRVLVDFNHELAGKEVKYRIKIEEVVDDKKNIVKEIVKMYVPRLSDVKVTIRNGTVKIELPEFAPFIPNIQTAKMAIANEILKRLEDAEKVSFVETFERKKETKEENK | 2
